B1: Aerobic respiration control sensor protein ArcB (Escherichia coli (strain K12)), P0AEC3 (parent)
chain: MKQIRLLAQYYVDLMMKLGLVRFSMLLALALVVLAIVVQMAVTMVLHGQVESIDVIRSIFFGLLITPWAVYFLSVVVEQLEESRQRLSRLVQKLEEMRERDLSLNVQLKDNIAQLNQEIAVREKAEAELQETFGQLKIEIKEREETQIQLEQQSSFLRSFLDASPDLVFYRNEDKEFSGCNRAMELLTGKSEKQLVHLKPADVYSPEAAAKVIETDEKVFRHNVSLTYEQWLDYPDGRKACFEIRKVPYYDRVGKRHGLMGFGRDITERKRYQDALERASRDKTTFISTISHELRTPLNGIVGLSRILLDTELTAEQEKYLKTIHVSAVTLGNIFNDIIDMDKMERRKVQLDNQPVDFTSFLADLENLSALQAQQKGLRFNLEPTLPLPHQVITDGTRLRQILWNLISNAVKFTQQGQVTVRVRYDEGDMLHFEVEDSGIGIPQDELDKIFAMYYQVKDSHGGKPATGTGIGLAVSRRLAKNMGGDITVTSEQGKGSTFTLTIHAPSVAEEVDDAFDEDDMPLPALNVLLVEDIELNVIVARSVLEKLGNSVDVAMTGKAALEMFKPGEYDLVLLDIQLPDMTGLDISRELTKRYPREDLPPLVALTANVLKDKQEYLNAGMDDVLSKPLSVPALTAMIKKFWDTQDDEESTVTTEENSKSEALLDIPMLEQYLELVGPKLITDGLAVFEKMMPGYVSVLESNLTAQDKKGIVEEGHKIKGAAGSVGLRHLQQLGQQIQSPDLPAWEDNVGEWIEEMKEEWRHDVEVLKAWVAKATKK
B2: Aerobic respiration control sensor protein ArcB (Escherichia coli (strain K12)), P0AEC3 (parent)
chain: B1 chain
partner: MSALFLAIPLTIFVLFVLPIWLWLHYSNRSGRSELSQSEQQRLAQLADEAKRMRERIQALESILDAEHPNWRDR
B3: Phage shock protein B (Escherichia coli (strain K12)), P0AFM9 (parent)
chain: B2 partner
partner: B1 chain

Variants of B1 are the subject of the first test. The following applies: with pspa_ecoli pspA.
As to L87A;L90A;L94A;M97A, the “effect of a mutation on the interaction” value is recorded as “decreasing interaction strength”.

In another test the parent is B2. Particulars: with pspb_ecoli pspB, P0AFM9.
Turning to L87A;L90A;L94A;M97A, the “effect of a mutation on the interaction” value is “decreasing interaction strength”.

In another test the parent is B3. The following applies: with arcb_ecoli arcB, P0AEC3.
For L10A;L15A;L18A, the “effect of a mutation on the interaction” value is “decreasing interaction strength”.
